In this test the target is T1, Staphylococcus haemolyticus AcrIIA13b, wild type, with C-terminal 6xHis tag (Staphylococcus haemolyticus).
T1 construct: Monomer and dimer peaks coexist in SEC; also called shAcrIIA13b; wild-type AcrIIA13b; source: E. coli BL21 (DE3), purified (Ni-NTA, SEC)
Kind of test: ITC; PBS pH 7.4, 20 °C; AcrIIA13b (500 μM) injected into the target protein (50 μM) in the cell, 25 injections; single-site model. The settings on record: both partners purified. (In general: ITC needs no label: the signal is the heat of the interaction.)

These results are taken from publication PMC13147308, “Investigating the molecular mechanisms underlying the anti‐CRISPR function of AcrIIA13b protein” (The Febs Journal, 2025).

What is called Kd is the equilibrium constant for the complex coming apart. Lower therefore signals a tighter complex.

B1: SauCas9 WED-PI domain construct, His-tagged (domain or fragment)
chain: LYSTRKDDKGNTLIVNNLNGLYDKDNDKLKKLINKSPEKLLMYHHDPQTYQKLKLIMEQYGDEKNPLYKYYEETGNYLTKYSKKDNGPVIKKIKYYGNKLNAHLDITDDYPNSRNKVVKLSLKPYRFDVYLDNGVYKFVTVKNLDVIKKENYYEVNSKCYEEAKKLKKISNQAEFIASFYNNDLIKINGELYRVIGVNNDLLNRIEVNMIDITYREYLENMNDKRPPRIIKTIASKTQSIKKYSTDILGNLYEVKSKKHPQIIKKG
The molecule B1 came in with a Kd of 0.12 µM.

B2: SauCas9 WED (wedge-like) domain, His-tagged (domain or fragment)
chain: LYSTRKDDKGNTLIVNNLNGLYDKDNDKLKKLINKSPEKLLMYHHDPQTYQKLKLIMEQYGDEKNPLYKYYEETGNYLTKYSKKDNGPVIKKIKYYGNKLNAHLDITDDYPNSRNKVVKLSL
The molecule B2 registered a Kd of 3.21 µM.
